The values below are quoted from earlier work in paper PMC8199771.

Data set [1] has as its target muscle nAChR alpha1-gamma and alpha1-delta interfaces (Mus musculus) (UniProt P04756).
The target in data set [2] is muscle nAChR alpha1-epsilon interface (Mus musculus) (UniProt P04756).
Data set [3] deals with muscle nAChR alpha-epsilon interface (Mus musculus) (UniProt P04756).
The target of data set [4] is muscle nAChR (Homo sapiens) (UniProt P02708).
For data set [5], the target named is muscle nAChR alpha-delta interface (Mus musculus) (UniProt P04756).

For the substance NmmI (from UniProt P01431), the dissociation constant (Kd) in data set [1] is 0.1 nM; in data set [2], 100 nM.
Regarding Waglerin-1 (from UniProt P24335), the equilibrium dissociation constant (Kd) in data set [3] was 9.8 nM; in data set [4] it was 692 nM; in data set [5] it was 20200 nM.

Usually Kd stands for the constant that tells how readily two partners part at equilibrium.
